The record followed here is patent US20120027677A1.

This test concerns the target PrP^Sc, pathogenic form of the human prion protein (from CJD brain homogenate) (human) (UniProt P04156).

In the case of 3F4 antibody, the ave (RLU), vCJD BH stood at 56.3 RLU.
